Our source for the self-cleavage values is the RNAGym collection of RNA variant scans (doi:10.7554/elife.90254).

First the molecules themselves.
B1: LINE1-full (parent)
chain: UACGUAGGUGGUUUUCCCCUGAUAGUGCUAAGGGGGCCUGGAAGUUUGGACUGGGCAGAGCUCAACACAGCGUGGCAAAGUGGCUGUGGCUAGACUGCCUCUCUGGAUUCCUCGUCACUCAGCAGGGCAUCUCUGAGAGAAAUGCC

Variants of B1 are the subject of this series. The experiment in a line: self-cleavage, relative activity (ratio to wild type); higher = more cleavage; in vitro, sequencing; the parent is a self-cleaving ribozyme.
With C19U A94U, the self-cleavage is 0.14.
As for C19U A94G, the self-cleavage was found to be 0.29.
For C19U A59G the value was 0.03; for U20A A43C, 0.84; for U20A A43G, 1.12.
As to C18U U81C, the self-cleavage turned out to be 0.84.
U20A C111A: the self-cleavage was 1.19.
Turning to C19U A77G, the self-cleavage worked out at 1.68.
Consider C18A U115G, for which the self-cleavage turned out to be 0.99.
For U20A A78G, the self-cleavage is 1.39.
As to C17U U104A, the self-cleavage stood at 0.95.
As to C19U A138U, the self-cleavage stood at 1.24.
For C19U A138G the value was 1.01; for C19A U102C, 1.76; for C19U U115C, 1.79.
For C18A A94G the value was 0.22; for C19A U134C, 0.67; for C18A A57G, 1.29.
For C19A U39A the value was 2.04; for C18U U39C, 0.82.
As for U20A A138G, the self-cleavage is 1.27.
Take C18U U104C: the self-cleavage was 0.23.
Consider C18U U62C, for which the self-cleavage stood at 0.08.
For C19A A107G the value was 1; for C19G U62A, 0.03.
For C18U U87A the value was 0.08.
Consider C19U A79U, for which the self-cleavage was determined as 1.47.
For C19U A79G the value was 0.97.
As to C18U A129U, the self-cleavage worked out at 0.56.
For the variant C19U A57U, the self-cleavage came to 0.13.
For the variant C19U A57G, the self-cleavage amounted to 0.88.
In the case of C19A A69G, the self-cleavage stood at 0.42.
For U20A A64U the value was 0.36; for C19U U20C, 0.93.
For C19U C76U the value was 1.64; for C19A U109A, 1.58; for C19A U52C, 0.51.
For the variant U20A A59G, the self-cleavage worked out at 0.15.
For C19U G58U the value was 0.09.
For C19A U85A the value was 0.14; for U20A C71U, 1.22.
For C19U U112C the value was 1.13; for C19U U112A, 1.06; for C18U A22U, 0.9.
For the variant C19A U91C, the self-cleavage came out at 0.46.
For C19U A22U the value was 1.11; for C19U U119C, 1.38; for U20A G25A, 0.37.
For C19U G75A the value was 1.11; for U20A A50G, 1.2.
For C19U U96C the value was 0.18; for C18U U73A, 1.78.
With C18U U73C, the self-cleavage was 1.53.
C18U U115C: the self-cleavage was 1.49.
For C19G A43G the value was 0.31; for C19U U39A, 1.07; for C19U U39C, 0.65.
For the variant U20A G32C, the self-cleavage turned out to be 1.33.
For C19U U29C the value was 1.37.
U20A C66U: the self-cleavage turned out to be 0.02.
For C18A G88U the value was 0.12; for U20A C90U, 0.02; for U20A A42G, 1.06.
For C19U U87C the value was 0.06; for C19U U87A, 0.09; for C18A G34A, 1.01.
On to C19U U132C, for which the self-cleavage came to 0.
For C18U U85C the value was 0.12; for C19U G36C, 0.82.
In the case of C19U U108C, the self-cleavage was found to be 1.26.
For C19U A121C the value was 1.02.
Turning to C18A A69C, the self-cleavage worked out at 0.13.
For U20A C120U, the self-cleavage came out at 1.32.
For C18A U109A the value was 1.71; for U20A A141G, 1.43.
As to C18A A129G, the self-cleavage was found to be 1.42.
As to C19U U52A, the self-cleavage is 1.28.
On to C19U U52G, for which the self-cleavage was found to be 0.5.
Take C19U A43G: the self-cleavage was determined as 0.62.
Take C19U C133A: the self-cleavage came to 0.59.
With C18U U143C, the self-cleavage was 1.11.
For C19U G40A the value was 1; for C18A G36A, 1.12.
As to C18U U52A, the self-cleavage was determined as 1.54.
Turning to U20A C131U, the self-cleavage was 1.36.
For C19G A31G the value was 0.73; for C19U G34A, 0.75.
For C19U A78G the value was 1.24; for C18A U46C, 1.65; for C19U A140G, 0.92.
For C19U A140U, the self-cleavage is 0.82.
For C18A U62C the value was 0.11.
For U20A C51U the value was 0.77; for U20A C51A, 0.82.
For C19A A136U the value was 0.59; for C19U A136U, 1.41; for C19G A117U, 1.69.
Turning to C19U U81C, the self-cleavage worked out at 1.
For C19U A31U the value was 1.35; for C19U U47A, 0.69.
For C19A U46C the value was 1.22.
As for C18A A77U, the self-cleavage came out at 0.97.
With C19U U102C, the self-cleavage came to 0.73.
C19A U112C: the self-cleavage was 1.55.
For C19A U112G the value was 0.85.
For C19U G72C the value was 1.31; for C19U G72A, 1.19.
For C19U C123U the value was 1.58.
As to C19U A64G, the self-cleavage was determined as 0.25.
For C19U G48A the value was 0.72; for C18A U73C, 1.23; for C19G C56U, 0.22.
For C19U G105U the value was 1.55.
For U20A A30G the value was 0.9.
As for C19A A142U, the self-cleavage worked out at 1.36.
For C18U A117G the value was 1.72; for U20A A69G, 0.45.
Turning to C17U U96C, the self-cleavage was 0.1.
Turning to U20A A107G, the self-cleavage came to 1.37.
For U20A A140U the value was 1.7.
Regarding U20A A140G, the self-cleavage came out at 1.16.
For U20A A79U the value was 1.59; for C19U U134C, 1.09.
For C19U U134A the value was 0.81; for C18U A24G, 1.01; for U20A A124U, 0.91.
Regarding U20A A124G, the self-cleavage came to 0.76.
For C19U A67G the value was 0.
For C18U U109A the value was 0.9.
With U20A C68U, the self-cleavage worked out at 0.35.
For C19U C116U the value was 0.9; for C18U A142G, 1.27.
For C17U U112A, the self-cleavage came out at 0.9.
For C17U U112C the value was 1.49; for C19G U85C, 0.24.
As for C18A G89A, the self-cleavage is 0.05.
Take C19U G93A: the self-cleavage amounted to 0.07.
For C19U C120U the value was 1.25.
Turning to C18U C113U, the self-cleavage was 0.75.
Take C19U A142G: the self-cleavage stood at 1.06.
On to U20A C38U, for which the self-cleavage is 0.87.
For C19U A42C the value was 0.69; for U20A C63U, 0.45.
For C18A C123U the value was 1.31; for C19A A57G, 1.11; for C19U A124G, 0.88.
For C19U U62C the value was 0.06; for C18A U119C, 1.49; for C19U A24U, 1.
Consider U20A A94G, for which the self-cleavage is 0.18.
In the case of U20A A136G, the self-cleavage was determined as 0.93.
C18U A69G: the self-cleavage came out at 0.29.
As for C19U A117G, the self-cleavage was found to be 1.49.
Consider C19G A78G, for which the self-cleavage stood at 1.24.
As for C17U U143G, the self-cleavage came out at 1.43.
For C18U G139U the value was 1.11; for C19A U100C, 0.9.
For the variant C19A U100A, the self-cleavage worked out at 0.51.
For C18U A67G the value was 0.44; for C19U U26C, 1.32.
Consider C19U U26A, for which the self-cleavage came to 0.95.
For C19A U62A the value was 0.05; for C17U U132C, 0.95; for C19U A50G, 0.77.
For C18U A124U the value was 1.27; for C19U U23A, 1.1; for C19U U23C, 0.79.
